{"source": "patent US7057012B1", "about": "“PTH functional domain conjugate peptides, derivatives thereof and novel tethered ligand-receptor molecules” (The General Hospital Corporation, priority 1998, dated 2006)", "key": {"COS-7 cells [1]": {"system": "COS-7 cells", "experiment": "basal cAMP signaling of tethered ligand/receptor constructs in transiently transfected COS-7 cells", "type": "cell-based", "conditions": "for level of basal cAMP signaling: no agonist", "experimental": "(§1) Cell Culture: COS-7 cells were cultured at 37° C. in T-75 flasks ([…] in Dulbecco's modified Eagle's medium (DMEM) supplemented with fetal bovine serum (10%), penicillin G (20 units/ml), streptomycin sulfate (20 μg/ml) and amphotericin B (0.05 μg/ml) in a humidified atmosphere containing 5% CO2. Cells were sub-cultured in 24-well plates and, when confluent, were treated with fresh media and shifted to 33° C. for 12 to 24 h prior to the assay (Bergwitz, C., et al., J. Biol. Chem. 272:28861–28868 (1997); Abell, A., et al., J. Biol. Chem. 271:4518–4527 (1996)).\nPTH Receptor mutagenesis and COS-7 cell expression: The pcDNA-1-based plasmid encoding the intact HPTH-1 receptor (HK-WT in reference (Schipani, E., et al., Endocrinol. 132:2157–2165 (1993)) and herein called hP1R-WT) was used for studies in COS-7 cells. The truncated human PTH-1 receptor (hP1R-de1Nt) (FIG. 18) was constructed from the HK-WT plasmid by oligonucleotide-directed mutagenesis (Kunkel, T. A., Proc. Natl. Acad. Sci. USA 82:488–492 (1985)). This mutant receptor is deleted for residues 24 to 181 and, assuming that signal peptidase cleavage occurs between Ala^22 and Tyr^23 (Nielsen, H., et al., Protein Engineering 10:1–6 (1997)), is predicted to have Tyr^23 as the N-terminal residue joined directly to Glu^182 located at or near the boundary of the first transmembrane domain. A similarly truncated rat PTH receptor was described by us previously (Luck, M., et al., Molec. Endocrinol. 13:670–680 (1999)). The tethered human PTH-1 receptor [hP1R-Tether(1–9)] (hTether-1 in FIG. 17) is based on the hP1R-de1NT construct, and has PTH(1–9) and a four glycine spacer (AVSEIQLMHGGGG) (SEQ ID NO: 72) inserted between residues 23 and 182. Assuming that signal peptidase cleavage occurs between Ala^22 and Tyr^23, hP1R-Tether(1–9) is predicted to have Tyr^23 as the N-terminal residue joined directly to Ala of the ligand. Analogs of hP1R-Tether(1–9) were made in a similar fashion. Transient transfections of COS-7 cells were performed using DEAE-dextran and 200 ng of cesium chloride-purified plasmid DNA per well of a 24-well plate, as described previously (Bergwitz, C., et al., J. Biol. Chem. 272:28861–28868 (1997)).\ncAMP Stimulation: Stimulation of cells with peptide analogs was performed in 24-well plates. Cells were rinsed with 0.5 mL of binding buffer (50 mM Tris-HCl, 100 mM NaCl, 5 mM KCl, 2 mM CaCl2, 5% heat-inactivated horse serum, 0.5% fetal bovine serum, adjusted to pH 7.7 with HCl) and treated with 200 μL of cAMP assay buffer (Dulbecco's modified Eagle's medium containing 2 mM 3-isobutyl-1-methylxanthine, 1 mg/mL bovine serum albumin, 35 mM Hepes-NaOH, pH 7.4) and 100 μL of binding buffer containing varying amounts of peptide analog (final volume=300 μL). The medium was removed after incubation for 1 h at room temperature, and the cells were frozen (−80° C.), lysed with 0.5 mL 50 mM HCl, and refrozen (−80° C.). The cAMP content of the diluted lysate was determined by radioimmunoassay."}, "COS-7 cells [2]": {"system": "COS-7 cells", "experiment": "agonist-induced cAMP signaling of receptor constructs in transiently transfected COS-7 cells", "type": "cell-based", "experimental": "as §1\nPTH Receptor mutagenesis and COS-7 cell expression: The pcDNA-1-based plasmid encoding the intact HPTH-1 receptor (HK-WT in reference (Schipani, E., et al., Endocrinol. 132:2157–2165 (1993)) and herein called hP1R-WT) was used for studies in COS-7 cells. The truncated human PTH-1 receptor (hP1R-de1Nt) (FIG. 18) was constructed from the HK-WT plasmid by oligonucleotide-directed mutagenesis (Kunkel, T. A., Proc. Natl. Acad. Sci. USA 82:488–492 (1985)). […]\ncAMP Stimulation: Stimulation of cells with peptide analogs was performed in 24-well plates. […] The cAMP content of the diluted lysate was determined by radioimmunoassay."}}, "note": "Like-named read-outs stand apart in the source and are kept apart here."}
{"molecule": "hP1R-Tether(1–9): tethered human PTH-1 receptor: PTH(1–9) and four glycine spacer inserted between residues 23 and 182 of hP1R-delNT (protein) MGTARIAPGLALLLCCPVLSSAYAVSEIQLMHGGGGEVFDRLGMIYTVGYSVSLASLTVAVLILAYFRRLHCTRNYIHMHLFLSFMLRAVSIFVKDAVLYSGATLDEAERLTEEELRAIAQAPPPPATAAAGYAGCRVAVTFFLYFLATNYYWILVEGLYLHSLIFMAFFSEKKYLWGFTVFGWGLPAVFVAVWVSVRATLANTGCWDLSSGNKKWIIQVPILASIVLNFILFINIVRVLATKLRETNAGRCDTRQQYRKLLKSTLVLMPLFGVHYIVFMATPYTEVSGTLWQVQMHYEMLFNSFQGFFVAIIYCFCNGEVQAEIKKSWSRWTLALDFKRKARSGSSSYSYGPMVSHTSVTNVGPRVGLGLPLSPRLLPTATTNGHPQLPGHAKPGTPALETLETTPPAMAAPKDDGFLNGSCSGLDEEASGPERPPALLQEEWETVM", "values": [{"measurement": "enhancement in the basal level of cAMP relative to hde1NT", "setting": "COS-7 cells [1]; absence of any agonist peptide", "result": "~5", "unit": "fold"}]}
{"molecule": "hP1R-Tether(1–10): hP1R-Tether construct with the ligand chain extended to position 10 (protein) EIQLMHNGGGGEVFDRLGMIYTVGYSVSLASLTVAVLILAYFRRLHCTRNYIHMHLFLSFMLRAVSIFVKDAVLYSGATLDEAERLTEEELRAIAQAPPPPATAAAGYAGCRVAVTFFLYFLATNYYWILVEGLYLHSLIFMAFFSEKKYLWGFTVFGWGLPAVFVAVWVSVRATLANTGCWDLSSGNKKWIIQVPILASIVLNFILFINIVRVLATKLRETNAGRCDTRQQYRKLLKSTLVLMPLFGVHYIVFMATPYTEVSGTLWQVQMHYEMLFNSFQGFFVAIIYCFCNGEVQAEIKKSWSRWTLALDFKRKARSGSSSYSYGPMVSHTSVTNVGPRVGLGLPLSPRLLPTATTNGHPQLPGHAKPGTPALETLETTPPAMAAPKDDGFLNGSCSGLDEEASGPERPPALLQEEWETVM", "values": [{"measurement": "level of basal cAMP signaling", "setting": "COS-7 cells [1]", "result": "moderate, but significant, improvements"}]}
{"molecule": "hP1R-Tether(1–11): hP1R-Tether construct with the ligand chain extended to position 11, native leucine at 11 (protein) EIQLMHNLGGGGEVFDRLGMIYTVGYSVSLASLTVAVLILAYFRRLHCTRNYIHMHLFLSFMLRAVSIFVKDAVLYSGATLDEAERLTEEELRAIAQAPPPPATAAAGYAGCRVAVTFFLYFLATNYYWILVEGLYLHSLIFMAFFSEKKYLWGFTVFGWGLPAVFVAVWVSVRATLANTGCWDLSSGNKKWIIQVPILASIVLNFILFINIVRVLATKLRETNAGRCDTRQQYRKLLKSTLVLMPLFGVHYIVFMATPYTEVSGTLWQVQMHYEMLFNSFQGFFVAIIYCFCNGEVQAEIKKSWSRWTLALDFKRKARSGSSSYSYGPMVSHTSVTNVGPRVGLGLPLSPRLLPTATTNGHPQLPGHAKPGTPALETLETTPPAMAAPKDDGFLNGSCSGLDEEASGPERPPALLQEEWETVM", "values": [{"measurement": "level of basal cAMP signaling", "setting": "COS-7 cells [1]", "result": "moderate, but significant, improvements"}]}
{"molecule": "hP1R-WT: intact human PTH-1 receptor (protein) DADDVMTKEEQIFLLHRAQAQCEKRLKEVLQRPASIMESDKGWTSASTSGKPRKDKASGKLYPESEEDKEAPTGSRYRGRPCLPEWDHILCWPLGAPGEVVAVPCPDYIYDFNHKGHAYRRCDRNGSWELVPGHNRTWANYSECVKFLTNETREREVFDRLGMIYTVGYSVSLASLTVAVLILAYFRRLHCTRNYIHMHLFLSFMLRAVSIFVKDAVLYSGATLDEAERLTEEELRAIAQAPPPPATAAAGYAGCRVAVTFFLYFLATNYYWILVEGLYLHSLIFMAFFSEKKYLWGFTVFGWGLPAVFVAVWVSVRATLANTGCWDLSSGNKKWIIQVPILASIVLNFILFINIVRVLATKLRETNAGRCDTRQQYRKLLKSTLVLMPLFGVHYIVFMATPYTEVSGTLWQVQMHYEMLFNSFQGFFVAIIYCFCNGEVQAEIKKSWSRWTLALDFKRKARSGSSSYSYGPMVSHTSVTNVGPRVGLGLPLSPRLLPTATTNGHPQLPGHAKPGTPALETLETTPPAMAAPKDDGFLNGSCSGLDEEASGPERPPALLQEEWETVM", "values": [{"measurement": "time of maximal agonist-induced signaling", "setting": "COS-7 cells [2]", "result": 40, "unit": "min"}]}
{"molecule": "hP1R-[R^11]-Tether(1–11): Made from hTether-1 by inserting Asn10-Arg11 between His9 and first Gly of linker (protein) MGTARIAPGLALLLCCPVLSSAYAVSEIQLMHNRGGGGEVFDRLGMIYTVGYSVSLASLTVAVLILAYFRRLHCTRNYIHMHLFLSFMLRAVSIFVKDAVLYSGATLDEAERLTEEELRAIAQAPPPPATAAAGYAGCRVAVTFFLYFLATNYYWILVEGLYLHSLIFMAFFSEKKYLWGFTVFGWGLPAVFVAVWVSVRATLANTGCWDLSSGNKKWIIQVPILASIVLNFILFINIVRVLATKLRETNAGRCDTRQQYRKLLKSTLVLMPLFGVHYIVFMATPYTEVSGTLWQVQMHYEMLFNSFQGFFVAIIYCFCNGEVQAEIKKSWSRWTLALDFKRKARSGSSSYSYGPMVSHTSVTNVGPRVGLGLPLSPRLLPTATTNGHPQLPGHAKPGTPALETLETTPPAMAAPKDDGFLNGSCSGLDEEASGPERPPALLQEEWETVM", "values": [{"measurement": "basal signaling compared with maximum agonist-stimulated response of hP1R-WT", "setting": "COS-7 cells [1]", "result": "approached the maximum response attained by hP1R-WT"}, {"measurement": "time of maximum level of basal cAMP signaling", "setting": "COS-7 cells [1]", "result": 40, "unit": "min"}, {"measurement": "increase in basal cAMP signaling", "setting": "COS-7 cells [1]; comparator not restated", "result": 20, "unit": "fold"}, {"measurement": "basal signaling compared with maximum agonist-stimulated response of hP1R-WT", "setting": "COS-7 cells [1]; listed as hP1R-[R^11]Tether-(1–11)", "result": "approached the maximum agonist-stimulated response attained by hP1R-wildtype"}, {"measurement": "level of basal cAMP signaling", "setting": "COS-7 cells [1]", "result": "increased still further"}, {"measurement": "time of maximal agonist-induced signaling", "setting": "COS-7 cells [2]", "result": 40, "unit": "min"}]}
